Publication PMC9932110, “RanBP9 controls the oligomeric state of CTLH complex assemblies” (The Journal of Biological Chemistry, 2023)
Several values for one entry are separate records, joined by “and”; a condition that tells them apart may be missing. Equal entries are not always repeated.

T1: Wdr26 (mouse, UniProt Q8C6G8 1-641)
T1 chain: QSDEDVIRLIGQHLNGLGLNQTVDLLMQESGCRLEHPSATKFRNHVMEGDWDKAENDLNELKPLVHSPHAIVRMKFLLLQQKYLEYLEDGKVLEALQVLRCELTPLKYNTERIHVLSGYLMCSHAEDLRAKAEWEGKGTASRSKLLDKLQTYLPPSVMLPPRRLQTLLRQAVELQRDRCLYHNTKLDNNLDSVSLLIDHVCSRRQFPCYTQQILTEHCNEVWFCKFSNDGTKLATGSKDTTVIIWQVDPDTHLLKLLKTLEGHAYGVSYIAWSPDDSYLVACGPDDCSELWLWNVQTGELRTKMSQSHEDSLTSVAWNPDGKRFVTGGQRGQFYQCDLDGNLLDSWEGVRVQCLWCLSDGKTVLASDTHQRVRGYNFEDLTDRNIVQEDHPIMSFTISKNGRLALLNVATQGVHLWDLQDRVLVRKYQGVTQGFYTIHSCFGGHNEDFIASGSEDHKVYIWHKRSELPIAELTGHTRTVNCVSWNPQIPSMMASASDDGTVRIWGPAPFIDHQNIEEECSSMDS

B1: Wdr26 (natural protein)
chain: T1 chain
modifications: Supplement: residues 1-101 deleted. Paper gives 625 residues, matching E0CYH4 (CTLH 136-195) rather than the 641-aa Q8C6G8 canonical form (CTLH 136-211). Forms a concentration-dependent oligomer …
B2: muskelin (natural protein, rat, UniProt Q99PV3 1-735, looked up)
chain: MAAGGAVAAAPECRLLPYALHKWSSFSSTYLPENILVDKPNDQSSRWSSESNYPPQYLILKLERPAIVQNITFGKYEKTHVCNLKKFKVFGGMNEENMTELLSSGLKNDYNKETFTLKHKIDEQMFPCRFIKIVPLLSWGPSFNFSIWYVELSGIDDPDIVQPCLNWYSKYREQEAIRLCLKHFRQHNYTEAFESLQKKTKIALEHPMLTDMHDKLVLKGDFDACEELIEKAVNDGLFNQYISQQEYKPRWSQIIPKSTKGDGEDNRPGMRGGHQMVIDVQTETVYLFGGWDGTQDLADFWAYSVKENQWTCISRDTEKENGPSARSCHKMCIDIQRRQIYTLGRYLDSSVRNSKSLKSDFYRYDIDTNTWMLLSEDTAADGGPKLVFDHQMCMDSEKHMIYTFGGRILTCNGSVDDSRASEPQFSGLFAFNCQCQTWKLLREDSCNAGPEDIQSRIGHCMLFHSKNRCLYVFGGQRSKTYLNDFFSYDVDSDHVDIISDGTKKDSGMVPMTGFTQRATIDPELNEIHVLSGLSKDKEKREENVRNSFWIYDIVRNSWSCVYKNDQAAKENLSKSLQEEEPCPRFAHQLVYDELHKVHYLFGGNPGKSCSPKMRLDDFWSLKLCRPSKDYLLRHCKYLIRKHRFEEKAQMDPLSALKYLQNDLYITVDHSDPEETKEFQLLASALFKSGSDFTALGFSDVDHTYAQRTQLFDTLVNFFPDSMTPPKGNLVDLITL
notes: muskelin, rat, 735 residues

How the values were obtained:
Wdr26 [1] = target: T1, Wdr26; assay: SEC-MALS; Wdr26 alone, dilution series from four batches, Superose 6 10/300 GL; molar mass at the peak against peak concentration, one-site model; dimer to higher oligomers; saturation not reached; settings: both partners purified
Wdr26 [2] = target: T1, Wdr26; assay: SEC-MALS; Superose 6 10/300 GL, SEC buffer; molar mass of single proteins and of complexes assembled from purified proteins; settings: both partners purified
[3] = target: the molecule itself; assay: as above

Binder	Kd (Wdr26 [1])	stoichiometry N (Wdr26 [1])	stoichiometry N (Wdr26 [2])	stoichiometry N [3]
B1	10 µM	≥ 8 and 12	2	–
B2	–	–	–	4
